Measured values taken from US20240425846A1.
Blank lines part the entries; values can stand above or below the binder they belong to.

Legend:
[1] = target: biotinylated human Her2 (HE2-H822R, Acro Biosystems) (human) (UniProt P04626); experiment: flow cell kinetic dissociation, ribosome-displayed scFv, buffer wash after Her2-biotin/AF532-streptavidin
[2] = target: biotinylated human Her2 (HE2-H822R, Acro Biosystems) (human) (UniProt P04626); experiment: deep screening, equilibrium fit (column DS KD (M))
[3] = target: biotinylated human Her2 (HE2-H822R, Acro Biosystems) (human) (UniProt P04626); experiment: deep screening ('HER2affmat'), ribosome-displayed scFv on flow cell, 5 minutes of wash after 100 nM Her2-biotin:AF532-streptavidin
[4] = target: biotinylated human Her2 (HE2-H822R, Acro Biosystems) (human) (UniProt P04626); experiment: deep screening, biphasic dissociation fit, phase 1
[5] = target: biotinylated human Her2 (HE2-H822R, Acro Biosystems) (human) (UniProt P04626); experiment: deep screening, equilibrium fit (column DS KD (M)); remark: listed apart in the source
[6] = target: biotinylated human Her2 (HE2-H822R, Acro Biosystems) (human) (UniProt P04626); experiment: flow cell equilibrium binding, ribosome-displayed scFv, 0.03-100 nM Her2-biotin and 100 nM AF532-streptavidin
[7] = target: biotinylated human Her2 (HE2-H822R, Acro Biosystems) (human) (UniProt P04626); experiment: deep screening, biphasic dissociation fit, phase 2
[8] = target: biotinylated human Her2 (HE2-H822R, Acro Biosystems) (human) (UniProt P04626); experiment: deep screening, equilibrium fit
[9] = target: biotinylated human Her2 (HE2-H822R, Acro Biosystems) (human) (UniProt P04626); experiment: BLI (Octet), Her2-biotin on streptavidin tip, Fab at 20 nM, 1:1 fit; the filing doubts the fit because the response was low

koff [1]: 0.000567 s⁻¹
Kd [2]: 887 nM
fluorescent intensity at the 5-minute wash step [3]: 190
koff [4]: 7.03e-05 s⁻¹
Kd [5]: 24 nM
Kd [6]: 16.2 nM
koff [7]: 0.0134 s⁻¹
Kd [8]: 886 nM
B1: Her2_G98A scFv (scFv)
scFv: MQVQLVQSGAEVKKPGESLKISCKGSGYSFTSYWIAWVRQMPGKGLEYMGLIYPGDSDTKYSPSFQGQVTISVDKSVSTAYLQWSSLKPSDSAVYFCARHDVAYCSSSNCAKWPEYFQHWGQGTLVTVSSGGGGSGGGGSGGGGSQSVLTQPPSVSAAPGQKVTISCSGSSSNIGNNYVSWYQQLPGTAPKLLIYGHTNRPAGVPDRFSGSKSGTSASLAISGFRSEDEADYYCASWDYTLSGWVFGGGTKLTVLGYMASGAEFGSGGQKQAEEAAAKAAADAKAKAEADAKAAEEAAKKAAADAKKKAEA

Kd [9]: 46.9 nM
B2: G98A Fab (Fab)
VH: MQVQLVQSGAEVKKPGESLKISCKGSGYSFTSYWIAWVRQMPGKGLEYMGLIYPGDSDTKYSPSFQGQVTISVDKSVSTAYLQWSSLKPSDSAVYFCARHDVAYCSSSNCAKWPEYFQHWGQGTLVTVSSGGGGSGGGGSGGGGSQSVLTQPPSVSAAPGQKVTISCSGSSSNIGNNYVSWYQQLPGTAPKLLIYGHTNRPAGVPDRFSGSKSGTSASLAISGFRSEDEADYYCASWDYTLSGWVFGGGTKLTVLG
VL: B2 VH
